This passage reports ELISA_avg results from patent publication US20230125550A1 (ARCELLX, published 2023).

T1: recombinant human CD123-Fc (human, UniProt P26951 19-305)
T1 construct: not shown: Fc part of CD123-Fc
T1 sequence: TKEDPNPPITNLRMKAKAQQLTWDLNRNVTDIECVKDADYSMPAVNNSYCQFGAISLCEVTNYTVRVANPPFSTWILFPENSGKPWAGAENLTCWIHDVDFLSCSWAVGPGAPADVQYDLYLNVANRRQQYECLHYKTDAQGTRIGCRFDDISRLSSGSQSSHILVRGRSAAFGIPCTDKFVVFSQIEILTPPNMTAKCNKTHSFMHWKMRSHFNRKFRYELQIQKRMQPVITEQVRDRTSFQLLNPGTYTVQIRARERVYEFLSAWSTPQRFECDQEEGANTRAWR

B1: SEQ ID NO 652 (designed binder)
chain: MGSWVEFYNRLDAIENRLWALGGSEAELAFFEELIAQFEFALQDYKGKGNPEVEALEDEADAIWEELMAYRHN
B2: SEQ ID NO 667 (designed binder)
chain: MGSWEEFDDRLDAIEHRLWALGGSEAELADFEGSIAAFESWLQVYKGKGNPEVEALEAEAEAIADELWAYRHN
B3: SEQ ID NO 656 (designed binder)
chain: MGSWEEFEQRLWAIDDRLWALGGSEAELAFFEYEIAEFEMDLQWYKGKGNPEVEALFYEAHAINEELWAYRHN
B4: SEQ ID NO 661 (designed binder)
chain: MGSWYEFFDRLDAIYDRLYALGGSEAELASFEAQIAEFEVELQSYKGKGNPEVEALEWEAWAIDEELYAYRHN
B5: SEQ ID NO 639 (designed binder)
chain: MGSWWEFLDRLEAIEYRLQALGGSEAELAVFEWEIAMFEDHLQGYKGKGNPEVEALHSEAHAIISELSAYRHN
B6: SEQ ID NO 645 (designed binder)
chain: MGSWFEFEERLNAISWRLHALGGSEAELAYFEEDIAWFEDDLQFYKGKGNPEVEALENEAYAIWEELDAYRHN
B7: SEQ ID NO 647 (designed binder)
chain: MGSWAEFDDRLEAIEYRLHALGGSEAELAWFEEGIAGFEHALQSYKGKGNPEVEALETEAGAINEELWAYRHN
B8: SEQ ID NO 664 (designed binder)
chain: MGSWYEFESRLDAIVDRLWALGGSEAELAEFEYEIAKFEWELQDYKGKGNPEVEALNWEAGAIEFELYAYRHN
B9: SEQ ID NO 653 (designed binder)
chain: MGSWEEFYYRLHAIDNRLWALGGSEAELAYFEWHIADFELELQDYKGKGNPEVEALSEEATAIFEELWAYRHN
B10: SEQ ID NO 671 (designed binder)
chain: MGSWDEFSERLDAIWGRLEALGGSEAELATFEFHIAEFEHELQYYKGKGNPEVEALQGEAAAIINELYAYRHN
B11: SEQ ID NO 641 (designed binder)
chain: MGSWWEFYDRLTAIEARLWALGGSEAELADFEEGIADFEYDLQDYKGKGNPEVEALFWEAWAIQSELTAYRHN
B12: SEQ ID NO 665 (designed binder)
chain: MGSWYEFEDRLDAILYRLLALGGSEAELAWFERDIAFFESELQWYKGKGNPEVEALEWEAMAIDDELFAYRHN
B13: SEQ ID NO 673 (designed binder)
chain: MGSWDEFDDRLEAIVDRLFALGGSEAELAMFEFEIAQFEHQLQYYKGKGNPEVEALRDEADAIWIELDAYRHN
B14: SEQ ID NO 642 (designed binder)
chain: MGSWYEFEDRLAAIEARLWALGGSEAELADFEEEIAYFEHGLQWYKGKGNPEVEALESEAMAIIDELHAYRHN
B15: SEQ ID NO 666 (designed binder)
chain: MGSWGEFMDRLEAIDYRLWALGGSEAELAWFESDIAEFEQELQMYKGKGNPEVEALWDEAMAIRDELFAYRHN
B16: SEQ ID NO 712 (designed binder)
chain: MGSWIEFEDRLYAIEDRLWALGGSEAELAAFEKEIAAFESELQAYKGKGNPEVEFLRYEAAEIRYWLQAYRHN
B17: SEQ ID NO 676 (designed binder)
chain: MGSWYEFDDRLEAIWDRLGALGGSEAELAAFEKEIAAFESELQAYKGKGNPEVEWLRETAADIRAELQAYRHN
B18: SEQ ID NO 649 (designed binder)
chain: MGSWWEFTDRLDAIFDRLWALGGSEAELAAFEESIAIFEQDLQYYKGKGNPEVEALEYEANAIQYELEAYRHN
B19: SEQ ID NO 648 (designed binder)
chain: MGSWDEFEERLQAIEYRLWALGGSEAELAWFEEVIAQFEYDLQKYKGKGNPEVEALSTEAQAIQDELWAYRHN
B20: SEQ ID NO 657 (designed binder)
chain: MGSWDEFHQRLAAIGDRLWALGGSEAELAYFEWEIATFEWDLQVYKGKGNPEVEALYFEATAIDEELMAYRHN
B21: SEQ ID NO 640 (designed binder)
chain: MGSWAEFEDRLAAIERRLEALGGSEAELADFESSIAWFEPDLQYYKGKGNPEVEALMYEAEAIFSELYAYRHN
B22: SEQ ID NO 654 (designed binder)
chain: MGSWREFHDRLFAIDGRLWALGGSEAELANFEWDIADFEFELQDYKGKGNPEVEALSWEADAIMQELGAYRHN
B23: SEQ ID NO 669 (designed binder)
chain: MGSWNEFWERLDAIEWRLFALGGSEAELAFFELDIAWFEEELQWYKGKGNPEVEALIFEAHAITLELDAYRHN
B24: SEQ ID NO 655 (designed binder)
chain: MGSWEEFDERLWAISDRLWALGGSEAELAYFEGEIAYFEQNLQTYKGKGNPEVEALQTEALAIDTELWAYRHN
B25: SEQ ID NO 646 (designed binder)
chain: MGSWFEFEERLEAIIYRLWALGGSEAELAMFEESIAWFESDLQQYKGKGNPEVEALEYEAMAISKELKAYRHN
B26: SEQ ID NO 659 (designed binder)
chain: MGSWDEFDTRLDAIFSRLYALGGSEAELAMFEGEIAEFEGSLQHYKGKGNPEVEALDFEAHAIDEELWAYRHN
B27: SEQ ID NO 672 (designed binder)
chain: MGSWDEFWDRLDAIEDRLFALGGSEAELADFERVIAWFENDLQEYKGKGNPEVEALDNEADAIRIELHAYRHN
B28: SEQ ID NO 674 (designed binder)
chain: MGSWEEFTIRLGAIYWRLFALGGSEAELANFEWFIAEFEYELQPYKGKGNPEVEALVIEANAIDGELQAYRHN
B29: SEQ ID NO 668 (designed binder)
chain: MGSWYEFADRLDAIMDRLVALGGSEAELAYFEWEIAAFEEFLQMYKGKGNPEVEALDEEAEAIKDELMAYRHN
B30: SEQ ID NO 644 (designed binder)
chain: MGSWEEFFFRLEAIDDRLYALGGSEAELALFEEVIAYFEQDLQWYKGKGNPEVEALYVEAYAIQEELYAYRHN
B31: SEQ ID NO 675 (designed binder)
chain: MGSWFEFEWRLDAIENRLNALGGSEAELAWFEYHIAAFEDSLQHYKGKGNPEVEALEWEAHAIQSELQAYRHN
B32: SEQ ID NO 663 (designed binder)
chain: MGSWLEFEDRLVAIDHRLFALGGSEAELAEFEEEIALFESYLQDYKGKGNPEVEALNWEADAIHAELYAYRHN
B33: SEQ ID NO 650 (designed binder)
chain: MGSWWEFTDRLEAIEDRLWALGGSEAELAHFEDSIAQFEQELQWYKGKGNPEVEALADEADAIESELHAYRHN
B34: SEQ ID NO 670 (designed binder)
chain: MGSWYEFDARLDAIEERLYALGGSEAELAAFEFEIAGFEEALQWYKGKGNPEVEALLKEAEAITDELYAYRHN
B35: SEQ ID NO 662 (designed binder)
chain: MGSWFEFLYRLDAIEDRLWALGGSEAELAEFEQEIAKFESELQSYKGKGNPEVEALEWEAHAIDMELEAYRHN
B36: SEQ ID NO 651 (designed binder)
chain: MGSWVEFFWRLDAIEDRLWALGGSEAELANFEFEIADFEAWLQKYKGKGNPEVEALHSEADAIQLELRAYRHN
B37: SEQ ID NO 643 (designed binder)
chain: MGSWWEFSWRLEAIETRLDALGGSEAELAFFEMDIAWFEQDLQLYKGKGNPEVEALEEEAYAIYEELEAYRHN
B38: SEQ ID NO 660 (designed binder)
chain: MGSWHEFDDRLDAIMSRLDALGGSEAELATFEAEIATFEFVLQLYKGKGNPEVEALLAEAYAIDWELEAYRHN
B39: SEQ ID NO 658 (designed binder)
chain: MGSWVEFEYRLDAISDRLWALGGSEAELAFFENEIASFESDLQFYKGKGNPEVEALMFEAEAIDDELHAYRHN

The assay concerns the target T1, recombinant human CD123-Fc. Put plainly: phage ELISA, A450 target/A450 IgG1-Fc. Put shortly:
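Phage were rescued in 96-well format with VCSM13 helper phage from individual phagemid colonies picked from panning output. Plates were coated with 1.3 microg/ml goat anti-human IgG1-Fc antibody, then 5 nM recombinant human target or IgG1-Fc, then 50 microl phage diluted 5× in ELISA blocking buffer. Binding was detected with HRP-conjugated anti-M13 antibody at 450 nm. The ELISA ratio is target over IgG1-Fc absorbance, averaged across all screened wells holding that clone.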
(In an ELISA, binding on a coated surface is turned into a signal by an enzyme label.)
With B1, the ELISA_avg was found to be 6.9 ratio.

Turning to B2, the ELISA_avg was 4 ratio.

B3: the ELISA_avg amounted to 5.7 ratio.

As to B4, the ELISA_avg was 4.7 ratio.

In the case of B5, the ELISA_avg turned out to be 3.1 ratio.

For the molecule B6, the ELISA_avg is 13 ratio.

B7: the ELISA_avg was found to be 5.8 ratio.

Turning to B8, the ELISA_avg stood at 5.1 ratio.

With B9, the ELISA_avg was found to be 3 ratio.

For B10, the ELISA_avg is 3.2 ratio.

For the molecule B11, the ELISA_avg came to 3.2 ratio.

B12: the ELISA_avg was 4.3 ratio.

For the molecule B13, the ELISA_avg worked out at 5.6 ratio.

For the molecule B14, the ELISA_avg came to 3.8 ratio.

For B15, the ELISA_avg came out at 4.6 ratio.

As to B16, the ELISA_avg is 4 ratio.

In the case of B17, the ELISA_avg amounted to 3.3 ratio.

With B18, the ELISA_avg is 7.5 ratio.

For the molecule B19, the ELISA_avg was 3.8 ratio.

As for B20, the ELISA_avg turned out to be 3.7 ratio.

In the case of B21, the ELISA_avg stood at 4.2 ratio.

With B22, the ELISA_avg was determined as 5.6 ratio.

For the molecule B23, the ELISA_avg was 3 ratio.

Turning to B24, the ELISA_avg worked out at 6.5 ratio.

Take B25: the ELISA_avg worked out at 3.7 ratio.

On to B26, for which the ELISA_avg was found to be 4 ratio.

For B27, the ELISA_avg was 3.9 ratio.

With B28, the ELISA_avg was determined as 3.3 ratio.

For B29, the ELISA_avg is 3.3 ratio.

For the molecule B30, the ELISA_avg came out at 3.2 ratio.

As for B31, the ELISA_avg amounted to 3.3 ratio.

Consider B32, for which the ELISA_avg amounted to 3.9 ratio.

Turning to B33, the ELISA_avg came to 16.6 ratio.

In the case of B34, the ELISA_avg was determined as 8.9 ratio.

In the case of B35, the ELISA_avg worked out at 6.6 ratio.

For B36, the ELISA_avg came out at 4 ratio.

As for B37, the ELISA_avg worked out at 3.3 ratio.

Turning to B38, the ELISA_avg worked out at 7.7 ratio.

Regarding B39, the ELISA_avg was 6.5 ratio.
